Measurements reported in paper PMC10600457.

B1: Nirsevimab (antibody, V domains shown)
VH: QVQLVQSGAEVKKPGSSVMVSCQASGGLLEDYIINWVRQAPGQGPEWMGGIIPVLGTVHYGPKFQGRVTITADESTDTAYMELSSLRSEDTAMYYCATETALVVSETYLPHYFDNWGQGTLVTVSS
VL: DIQMTQSPSSLSAAVGDRVTITCQASQDIVNYLNWYQQKPGKAPKLLIYVASNLETGVPSRFSGSGSGTDFSLTISSLQPEDVATYYCQQYDNLPLTFGGGTKVEIK
B2: MEDI8897*-TM (antibody, V domains shown)
VH: QVQLVQSGAEVKKPGSSVMVSCQASGGLLEDYIINWVRQAPGQGPEWMGGIIPVLGTVHYGPKFQGRVTITADESTDTAYMELSSLRSEDTAMYYCATETALVVSETYLPHYFDNWGQGTLVTVSS
VL: DIQMTQSPSSLSAAVGDRVTITCQASQDIVNYLNWYQQKPGKAPKLLIYVASNLETGVPSRFSGSGSGTDFSLTISSLQPEDVATYYCQQYDNLPLTFGGGTKVEIK
B3: MEDI8897* (antibody, V domains shown)
VH: QVQLVQSGAEVKKPGSSVMVSCQASGGLLEDYIINWVRQAPGQGPEWMGGIIPVLGTVHYGPKFQGRVTITADESTDTAYMELSSLRSEDTAMYYCATETALVVSETYLPHYFDNWGQGTLVTVSS
VL: DIQMTQSPSSLSAAVGDRVTITCQASQDIVNYLNWYQQKPGKAPKLLIYVASNLETGVPSRFSGSGSGTDFSLTISSLQPEDVATYYCQQYDNLPLTFGGGTKVEIK
B4: Palivizumab (antibody, V domains shown)
VH: QVTLRESGPALVKPTQTLTLTCTFSGFSLSTSGMSVGWIRQPPGKALEWLADIWWDDKKDYNPSLKSRLTISKDTSKNQVVLKVTNMDPADTATYYCARSMITNWYFDVWGAGTTVTVSS
VL: DIQMTQSPSTLSASVGDRVTITCKCQLSVGYMHWYQQKPGKAPKLLIYDTSKLASGVPSRFSGSGSGTEFTLTISSLQPDDFATYYCFQGSGYPFTFGGGTKLEIK

Tests used:
Test in all cases: SPR
FcγRI = FcγRI (UniProt P12314)
Chain of UniProt P12314 (P12314 16-374): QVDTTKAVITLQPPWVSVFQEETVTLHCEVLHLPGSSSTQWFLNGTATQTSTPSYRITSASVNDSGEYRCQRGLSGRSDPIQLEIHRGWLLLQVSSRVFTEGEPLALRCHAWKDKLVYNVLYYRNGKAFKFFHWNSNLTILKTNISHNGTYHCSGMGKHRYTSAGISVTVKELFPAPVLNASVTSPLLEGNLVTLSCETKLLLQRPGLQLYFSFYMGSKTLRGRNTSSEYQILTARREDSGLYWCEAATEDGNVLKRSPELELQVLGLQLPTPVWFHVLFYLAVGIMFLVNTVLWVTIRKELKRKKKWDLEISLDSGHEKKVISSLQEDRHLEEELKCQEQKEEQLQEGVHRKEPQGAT

FcγRIIA = FcγRIIA (UniProt P12318)
FcγRIIIA-158V = target: FcγRIIIA-158V
FcγRIIB = FcγRIIB (UniProt P31994)
Chain of UniProt P31994 (P31994 43-310): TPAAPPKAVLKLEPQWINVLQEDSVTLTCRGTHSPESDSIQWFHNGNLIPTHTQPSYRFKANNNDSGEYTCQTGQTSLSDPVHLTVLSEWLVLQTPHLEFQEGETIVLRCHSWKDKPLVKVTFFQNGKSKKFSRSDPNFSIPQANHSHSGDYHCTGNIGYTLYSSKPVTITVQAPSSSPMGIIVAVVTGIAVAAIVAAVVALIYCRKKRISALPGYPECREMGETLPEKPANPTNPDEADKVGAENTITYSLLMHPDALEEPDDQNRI

| Binder | Kd (FcγRI) | Kd (FcγRIIA) | Kd (FcγRIIIA-158V) | Kd (FcγRIIB) |
| --- | --- | --- | --- | --- |
| B1 | 10.3 nM | 9300 nM | 2110 nM |  |
| B2 | 240 nM | 34400 nM | 5150 nM |  |
| B3 | 1.24 nM | 3720 nM | 1150 nM | 13500 nM |
| B4 | 1.01 nM | 2780 nM | 882 nM | 12500 nM |
